Columns and labels:
[1] = molecular target: human OX40 receptor (CD134), full length, on the cell surface (human) (UniProt P43489); test: cell-based or functional assay
[2] = molecular target: T1, murine OX40 (form not stated) (mouse, UniProt P47741 20-211, limits assumed); test: not described (observation cited in Example 8)
T1 sequence (looked up): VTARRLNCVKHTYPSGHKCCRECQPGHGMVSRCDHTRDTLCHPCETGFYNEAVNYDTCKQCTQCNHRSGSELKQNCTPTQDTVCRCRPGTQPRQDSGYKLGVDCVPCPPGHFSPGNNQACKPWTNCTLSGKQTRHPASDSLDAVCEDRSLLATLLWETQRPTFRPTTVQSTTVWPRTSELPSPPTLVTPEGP

[3] = molecular target: T2, human OX40 (form used in the assay not stated) (human, UniProt P43489 29-214, limits assumed); test: OX40 binding titration with OD readout (assay format and form of OX40 not described); x axis 'Log concentration, µg/ml Fab'
T2 sequence (looked up): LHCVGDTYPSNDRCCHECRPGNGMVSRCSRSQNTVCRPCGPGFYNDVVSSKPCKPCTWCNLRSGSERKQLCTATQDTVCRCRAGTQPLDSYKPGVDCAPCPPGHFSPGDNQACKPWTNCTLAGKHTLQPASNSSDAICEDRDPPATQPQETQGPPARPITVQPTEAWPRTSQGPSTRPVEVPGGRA

[4] = molecular target: T2, human OX40 (form used in the assay not …); test: Biacore, format not described

## OX40 ligand (OX40L) on transfected mouse L fibroblasts
[1]
  CMP Mean (n: 3), proliferation, Th17 cells + OX40L L-cells: 66000 CPM
  IFN-γ Conc (pg/ml), Th1 cells + OX40L L-cells: 33000 pg/mL
  IL2 (pg/ml), OX40-Hut-78 + OX40L-L-cells, no antibody: 138 pg/mL
  IL13 (pg/ml), OX40-Hut-78 + OX40L-L-cells, no antibody: 620 pg/mL
  IL-17 Conc (pg/ml), TH-17, CD4+ cells/OX40L L-cells: 2260 pg/mL
  Survivin expression (%), Th17 cells + OX40L L-cells: 49%
  TH17 Survival (%), Th17 + OX40L-L-cells: 39.2%
  Th1 Survival (%), naïve CD4+ T-cells + OX40L L-cells: 65.9%
  Th17 proliferation, fold against culture without OX40L costimulation: 4 fold
  Th-17 Survival (%), Th17 cells + OX40L L-cells: 84.3%

B1: humanized anti-OX40 antibody A10(TH)hu336F (antibody, V domains shown)
VH: QVQLVQSGAEVKKPGASVKVSCKASGYTFTSYWMHWVRQAPGQGLEWMGEIHPKSGNSNYNEKFKGRVTMTRDTSTSTVYMELSSLRSEDTAVYYCARGPEYSNFWFAYWGQGTLVTVSS
VL: DIVLTQSPTSLAVSLGQRATISCKASQTVDYDGDSYMHWYQQKPGQPPKLLIYAASNLESGVPDRFSGSGSGTDFTLTISSLQAEDVAVYYCHQSNEDPWTFGQGTKVEIK
notes: also called humanized clone A10(TH)hu336F; 'humanized' A10 molecule
[2]
  binding result: no binding
[3]
  EC50 (read off the curve): ~9 ng/mL

B2: humanized A10 whole antibody F (A10 LC (TH) hu 336 / A10 humanized) (antibody, V domains shown)
VH: QVQLVQSGAEVKKPGASVKVSCKASGYTFTSYWMHWVRQAPGQGLEWMGEIHPKSGNSNYNEKFKGRVTMTRDTSTSTVYMELSSLRSEDTAVYYCARGPEYSNFWFAYWGQGTLVTVSS
VL: DIVLTQSPTSLAVSLGQRATISCKASQTVDYDGDSYMHWYQQKPGQPPKLLIYAASNLESGVPDRFSGSGSGTDFTLTISSLQAEDVAVYYCHQSNEDPWTFGQGTKVEIK
notes: also called A10-F; humanized variant A10-F
[4]
  Kd: 1.12 nM
  koff: 0.000158 s⁻¹
  kon: 141000 M⁻¹ s⁻¹

B3: humanized A10 whole antibody A (A10 LC (SH) / A10 L70) (antibody, V domains shown)
VH: QVQLVQSGAEVKKPGASVKVSCKASGYTFTSYWMHWVRQAPGQGLEWMGEIHPKSGNSNYNEKFKGRVTLTRDTSTSTVYMELSSLRSEDTAVYYCARGPEYSNFWFAYWGQGTLVTVSS
VL: DIVMTQSPDSLAVSLGERATINCKASQSVDYDGDSYMHWYQQKPGQPPKLLIYAASNLESGVPDRFSGSGSGTDFTLTISSLQAEDVAVYYCHQSNEDPWTFGQGTKVEIK
[4]
  Kd: 1.38 nM
  koff: 0.000179 s⁻¹
  kon: 131000 M⁻¹ s⁻¹

B4: humanized A10 whole antibody E (A10 LC (SN) / A10 humanized) (antibody, V domains shown)
VH: QVQLVQSGAEVKKPGASVKVSCKASGYTFTSYWMHWVRQAPGQGLEWMGEIHPKSGNSNYNEKFKGRVTMTRDTSTSTVYMELSSLRSEDTAVYYCARGPEYSNFWFAYWGQGTLVTVSS
VL: DIVMTQSPDSLAVSLGERATINCKASQSVDYDGDSYMNWYQQKPGQPPKLLIYAASNLESGVPDRFSGSGSGTDFTLTISSLQAEDVAVYYCHQSNEDPWTFGQGTKVEIK
[4]
  Kd: 1.25 nM
  koff: 0.000191 s⁻¹
  kon: 151000 M⁻¹ s⁻¹

B5: humanized A10 whole antibody B (A10 LC (SN) / A10 L70) (antibody, V domains shown)
VH: QVQLVQSGAEVKKPGASVKVSCKASGYTFTSYWMHWVRQAPGQGLEWMGEIHPKSGNSNYNEKFKGRVTLTRDTSTSTVYMELSSLRSEDTAVYYCARGPEYSNFWFAYWGQGTLVTVSS
VL: DIVMTQSPDSLAVSLGERATINCKASQSVDYDGDSYMNWYQQKPGQPPKLLIYAASNLESGVPDRFSGSGSGTDFTLTISSLQAEDVAVYYCHQSNEDPWTFGQGTKVEIK
[4]
  Kd: 0.94 nM
  koff: 0.000156 s⁻¹
  kon: 170000 M⁻¹ s⁻¹

B6: humanized A10 whole antibody C (A10 LC (TH) hu 336 / A10 L70) (antibody, V domains shown)
VH: QVQLVQSGAEVKKPGASVKVSCKASGYTFTSYWMHWVRQAPGQGLEWMGEIHPKSGNSNYNEKFKGRVTLTRDTSTSTVYMELSSLRSEDTAVYYCARGPEYSNFWFAYWGQGTLVTVSS
VL: DIVMTQSPDSLAVSLGERATINCKASQTVDYDGDSYMHWYQQKPGQPPKLLIYAASNLESGVPDRFSGSGSGTDFTLTISSLQAEDVAVYYCHQSNEDPWTFGQGTKVEIK
[4]
  Kd: 1.44 nM
  koff: 0.000151 s⁻¹
  kon: 116000 M⁻¹ s⁻¹

B7: humanized A10 whole antibody D (A10 LC (SH) / A10 humanized) (antibody, V domains shown)
VH: QVQLVQSGAEVKKPGASVKVSCKASGYTFTSYWMHWVRQAPGQGLEWMGEIHPKSGNSNYNEKFKGRVTMTRDTSTSTVYMELSSLRSEDTAVYYCARGPEYSNFWFAYWGQGTLVTVSS
VL: DIVMTQSPDSLAVSLGERATINCKASQSVDYDGDSYMHWYQQKPGQPPKLLIYAASNLESGVPDRFSGSGSGTDFTLTISSLQAEDVAVYYCHQSNEDPWTFGQGTKVEIK
notes: also called A10-D; A10 D
[4]
  Kd: 1.21 nM
  koff: 0.00017 s⁻¹
  kon: 140000 M⁻¹ s⁻¹

— patent publication US20100136030A1 (published 2010)
